Assay results taken from patent US20230009161A1.

Target: recombinant human ErbB2/HER2 Fc chimera protein (R&D Systems, cat no. 1129-ER) (human) (UniProt P04626)

“IgG1^HER2 (monoclonal anti-HER2 IgG1; Trastuzumab) (antibody)” gave a Kd of 720 pM.
